Results: patent publication US20220259328A1 (Kyowa Kirin, published 2022)

What was measured:
monkey CD40-GST = biological target: T1, monkey CD40-GST (monkey, UniProt P25942 21-193 (human entry)); assay: phage ELISA on immobilized monkey CD40-GST, anti-M13-HRP detection
T1 construct: also called monkey CD40-GST protein; not shown: GST region of the N5 vector
T1 chain: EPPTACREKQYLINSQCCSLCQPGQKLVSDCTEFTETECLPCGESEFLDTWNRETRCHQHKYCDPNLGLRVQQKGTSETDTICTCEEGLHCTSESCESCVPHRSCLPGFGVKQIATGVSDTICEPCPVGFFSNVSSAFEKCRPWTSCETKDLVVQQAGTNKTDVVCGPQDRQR
Protocol: (§1) In the ELISA, MAXISORP (manufactured by NUNC, Inc.) in which the human or monkey CD40-GST in Example 1 was immobilized on each well and a portion to which the human or monkey CD40-GST is not bound was blocked using SuperBlock Blockig Buffer (manufactured by Thermo Fisher. Inc.) was used. To each well, each phage clone was added and reacted at room temperature for 30 minutes, and thereafter, each well was washed 3 times with PBS-T.

human CD40-GST = biological target: T2, human CD40-GST (human, UniProt P25942 21-193); assay: phage ELISA on immobilized human CD40-GST, anti-M13-HRP detection
T2 construct: also called human CD40-GST protein; not shown: GST region of the N5 vector
Protocol: as §1

B1: R1090S55A (monoclonal phage clone displaying scFv) (scFv, V domains shown)
VH: EVQLVQSGAEVKKPGESLKISCKGSGYSFIIYWIGWVRQMPGKGLEWMGIIYPNDADTRYSPSFQGQVTISADKSISTAYLQWSSLKASDTAMYYCVRLGTRDWFDPWGQGTLVTVSS
VL: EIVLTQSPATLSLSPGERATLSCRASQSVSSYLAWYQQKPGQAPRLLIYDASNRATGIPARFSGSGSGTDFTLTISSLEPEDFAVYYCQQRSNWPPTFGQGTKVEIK
notes: also called anti-CD40 antibody R1090S55A
binding result (monkey CD40-GST): binds | binding result (human CD40-GST): binds
